In test [1] the test system is GMA-2105. The test can be described thus: Solid phase competitive inhibition ELISA with variant staphylocoagulase peptides. In kind it is binding. The note with it: peptide incubated with GMA-2105 in solution overnight at 4 degrees C. The source says:
There are reported strain specific sequence differences at residue positions 8 and 9 of staphylocoagulase (SEQ ID. No.: 2). […] Wantabe, et al., Genetic Diversity of Staphylocoagulase Genes (coa): Insight into the evolution of variable chromosomal virulence factors in Staphylococcus aureus. PLoS ONE 2009; 4(5): 1-11, incorporated herein by reference in its entirety. […] 9 (“Mutated Peptide Ala 8”), position 9 of SEQ ID NO. 9 (“Mutated Peptide Ala 9”), and position 8 and 9 of SEQ ID NO.: 9 (“Mutated Peptide Ala 8 & 9”) (see FIG. 13). We measured the binding of each synthetic peptide (Mutated Peptide Ala 8, Mutated Peptide Ala 9, and Mutated Peptide Ala 8 & 9) to GMA-2105 in solution.
We tested binding of Mutated Peptide Ala 8, Mutated Peptide Ala 9, and Mutated Peptide Ala 8 & 9 to GMA-2105 in a solid phase competitive inhibition assay. GMA-2105 was incubated with increasing concentrations of each of Mutated Peptide Ala 8, Mutated Peptide Ala 9, and Mutated Peptide Ala 8 & 9 (referred to hereafter as “GMA-2105—Mutated Peptide samples”) in solution overnight at 4 degrees C. The incubation was followed by transfer of the GMA-2105—Mutated Peptide samples to wells coated with the non-mutated peptide, […] (SEQ ID. No.: 9) and blocked with 0.1% BSA PBS. After a 30-minute incubation, wells were washed with PBS containing 0.05% TWEEN 20, followed by addition of goat anti-mouse secondary antibody conjugated to horseradish peroxidase. Substrate ortho-phenylenediamine conversion to product was measured at 490 nm using a spectrophotometer. The negative control as was a purified irrelevant synthetic peptide.
A general note: In an ELISA, binding on a coated surface is turned into a signal by an enzyme label.

In test [2] the target is T1, staphylocoagulase peptide SC(1-10) […] (SEQ ID NO: 9) (Staphylococcus aureus, UniProt P17855).
T1 construct: made in house; host or cells: chemical synthesis
The test is described as follows: Solid-phase ELISA on staphylocoagulase peptide. The test is classed as binding, S. aureus. How it is done:
Two additional 50 μg injections (peptide-KLH conjugate in incomplete Freunds adjuvant) were given on days 61 and 111. A serum sample from each mouse was collected on Day 122 and the antibody titer measured by solid-phase Enzyme Linked Immunosorbant Assay (ELISA) using the staphylocoagulase and/or vWbp peptide conjugated to ovalbumin coated on 96-well ELISA plates at 2 ug/ml. Uncoated areas of the wells were blocked with albumin from bovine serum (BSA). The wells were then incubated with dilutions of the mouse serum to test whether the serum contained antibodies to the staphylocoagulase and/or vWbp peptide. Bound antibodies were detected with anti-mouse IgG secondary antibody conjugated to horseradish peroxidase. The plates were then incubated with o-phenylenediamine (OPD) substrate which undergoes a color change in the presence of HRP the intensity of which can be measured using absorption at 490 nm wavelength in a microplate reader. […]
Purified chimeric GMA-2105 and murine GMA-2105 antibody were tested against staphylocoagulase peptide […] […] Antibody-antigen complex was detected using a goat anti-mouse secondary antibody conjugated to horseradish peroxidase or goat anti-human secondary antibody conjugated to horseradish peroxidase. Substrate ortho-phenylene diamine conversion to product was measured at 490 nm using a spectrophotometer

For test [3], the system named is staphylocoagulase. The test is described as follows: Western blot detection of staphylocoagulase in cultured bacteria supernatants. The note with it: supernatants of S. aureus strains COL and MW2 (MRSA). The test is classed as binding. The text has this:
Lanes A, B, and C contain concentrated (10×) supernatants from identically cultured bacteria. Lane A: S. saprophyticus (coagulase negative bacterium control); Lane B: S. aureus strain COL (MRSA); Lane C: S. aureus strain MW2 (MRSA); Lane D: media blank; Lane E: staphylocoagulase peptide conjugated to ovalbumin (SEQ ID NO.: 9).
(A western blot detects proteins with antibodies after separation by electrophoresis.)

Test [4] deals with SC(1-246)●prothrombin^3Q (Staphylococcus aureus, UniProt P17855). The test is described as follows: Inhibition of prothrombin^3Q activation by SC(1-246), S2238 hydrolysis. The test is classed as biochemical, S. aureus. The conditions noted are these: read-out: affinity of inhibition of prothrombin^3Q activation by SC(1-246); prothrombin 1 nM, SC(1-246) 5.6 nM and 28 nM.
Test [5] addresses T2, BODIPY-labeled staphylocoagulase SC (S7C) (1-325) (Staphylococcus aureus, UniProt P17855, S33C).
T2 construct: BODIPY fluorophore (chemical label)
The test is described as follows: Equilibrium binding of BODIPY-labeled staphylocoagulase, fluorescence titration in solution. Further details: species or system S. aureus. How it is done: In solution, the antibody bound Ser 7 to Cys mutant of SC(1-325). Binding studies were done using the BODIPY-labeled staphylocoagulase SC (S7C) (1-325) (SEQ ID NO.: 2, positions 1-325 with Cys at position 7). The change of fluorescence upon antibody binding is measured as a function of the unlabeled ligand concentration and fitting the data to the quadratic binding equation gives the dissociation constant (KD), and the stoichiometry (n). Panizzi, et al., Fibrinogen substrate recognition by staphylocoagulase-(pro)thrombin complexes, J. Biol. Chem. 2006; 281:118-95.
Direct binding of BODIPY-SC(S7C) at 27 nM (●) and 130 nM (∘) probe titrated with GMA-2105 caused fluorescence increase, whereas unlabeled SC(1-246) (triangles) displaced BODIPY-SC(S7C) labeled staphylocoagulase from binding the antibody. Simultaneous fit of all datasets provide the Kd for the unmodified competitor to the antibody.
Concentrations were: BODIPY-staphylocoagulase (1-325) at 27 nM (●) and 130 nM (∘) titrated with GMA-2105 and unlabeled staphylocoagulase (1-246)(residues 1-246 of SEQ ID No. 2).
In FIG. 29, BODIPY®-labeled staphylocoagulase fragment (1-325) at 27 nM (●) and 130 nM (∘) titrated with chimeric GMA-2105 in solution in the presence of unlabeled staphylocoagulase fragment (1-246) (▴).

On to “Mutated Peptide Ala 9: synthetic peptide with alanine substitution at position 9 of SEQ ID NO. 9 (IVTKDYSKAS)”, for which, in test [1], the “inhibition of GMA-2105 binding to wells coated with […]” value (“inhibition of GMA-2105 binding” below) was “inhibited binding of antibody”.

Regarding “Mutated Peptide Ala 8: synthetic peptide with alanine substitution at position 8 of SEQ ID NO. 9 (IVTKDYSAES)”, the “inhibition of GMA-2105 binding” value in test [1] was “inhibited binding of antibody”.

Regarding “Mutated Peptide Ala 8 & 9: synthetic peptide with alanine substitutions at positions 8 and 9 of SEQ ID NO. 9 (IVTKDYSAAS)”, the “inhibition of GMA-2105 binding” value in test [1] was “inhibited binding of antibody”.

B1: GMA-2105 F(ab): fragment antigen-binding fragment of GMA-2105 (antibody, V domains shown)
VH: EVKLEESGGGLVQPGGSMKLSCAASGFTFSDAWMDWVRQSPEKGLEWVAEIRTKANNHATYYAESVKGRFTISRDDSKSSVYLQMNSLRAEDTGIYYCTNVYYGNNDVKDYWGQGTSVTVSPAS
VL: DIVMTQSQKFMSTSVGDRVSVTCKASQNVDIYVAWYQQKPGQSPKALIYSASYRFSGVPDRFTGSGSGTDFTLSISNVQSEDLAEYFCQQYNNYPYTFGGGTKLEIKRADAAPTVSIFPPSSEGRI
On to B1, for which, in test [2], the “binding to staphylocoagulase peptide in ELISA” value was “capable of binding”. In addition, the “binding of staphylocoagulase in cultured bacteria, Western blot” value in test [3] is on record as “bind staphylocoagulase”.

B2: GMA-2105: inhibitory mouse anti-staphylocoagulase monoclonal antibody raised against peptide […]; VH SEQ ID NO 6, VL SEQ ID NO 8 (protein)
chain 1: EVKLEESGGGLVQPGGSMKLSCAASGFTFSDAWMDWVRQSPEKGLEWVAEIRTKANNHATYYAESVKGRFTISRDDSKSSVYLQMNSLRAEDTGIYYCTNVYYGNNDVKDYWGQGTSVTVSPAS
chain 2: DIVMTQSQKFMSTSVGDRVSVTCKASQNVDIYVAWYQQKPGQSPKALIYSASYRFSGVPDRFTGSGSGTDFTLSISNVQSEDLAEYFCQQYNNYPYTFGGGTKLEIKRADAAPTVSIFPPSSEGRI
For the molecule B2, the Kd in test [4] was 0.9 nM.

B3: chimeric GMA-2105 (antibody, V domains shown)
VH: EVKLEESGGGLVQPGGSMKLSCAASGFTFSDAWMDWVRQSPEKGLEWVAEIRTKANNHATYYAESVKGRFTISRDDSKSSVYLQMNSLRAEDTGIYYCTNVYYGNNDVKDYWGQGTSVTVSPAS
VL: DIVMTQSQKFMSTSVGDRVSVTCKASQNVDIYVAWYQQKPGQSPKALIYSASYRFSGVPDRFTGSGSGTDFTLSISNVQSEDLAEYFCQQYNNYPYTFGGGTKLEIKRADAAPTVSIFPPSSEGRI
For the molecule B3, the “binding to staphylocoagulase peptide in ELISA” value in test [2] was “binding”. In test [5] (FIG. 30), the “binding characteristics compared with murine GMA-2105” value is listed as “essentially identical”. Besides, in test [5] (chimeric antibody), the stoichiometry was 2 mol staphylocoagulase/mol chimeric antibody.

The values above are taken from patent US12583913B2, “Antibody specific to Staphylococcus aureus, therapeutic method and detection method using same” (priority 2019, dated 2026).
